Earlier results, collected in publication PMC4322731.

Molecular target: Cys12 (UniProt position 13, SVLFVCLGNIC)
Settings: not stated (discussed as the resting-state thiolate form of the free enzyme)

For “Bovine heart low molecular weight protein tyrosine phosphatase (BHPTP, LMW-PTP, class II PTP) (Bos taurus)”, the pKa is listed as “less than 4”.
